The target of assay [1] is T1, HIS-PDZ1 protein (PSD-95 PDZ1, residues 61-151, with tag …) (human, UniProt P78352 61-151).
T1 construct: expressed in E. coli
Put plainly: FP competition assay (Ki), fluorescent NR2B probe displaced from the PDZ domain; bar chart.

The target in assay [2] is T2, HIS-PDZ2 protein (PSD-95 PDZ2, residues 155-249, with tag …) (human, UniProt P78352 155-249). Described as above.
Assay [3] addresses T2, HIS-PDZ2 protein (PSD-95 PDZ2, residues …). Put plainly: ITC. In general terms: In ITC the heat of successive injections is recorded.
Assay [4] has the same target. Put plainly: FP competition, fluorescent NR2B probe.
Assay [5] has the same target. Nature of the assay: FP competition: displaces fluorescent NR2B probe (50 nM) from PDZ2 (3 µM).
The target in assay [6] is T1, HIS-PDZ1 protein (PSD-95 PDZ1, residues …). Nature of the assay: FP competition: displaces fluorescent NR2B probe (50 nM) from PDZ1 (20 µM).
In assay [7] the target is T3, HIS-PDZ1-2 protein (PSD-95 PDZ1-2 tandem, residues 61-249, with tag …) (human, UniProt P78352 61-249). Nature of the assay: FP competition: displaces fluorescent NR2B probe (50 nM) from PDZ1-2 (3 µM).
Assay [8] concerns the target T3, HIS-PDZ1-2 protein (PSD-95 PDZ1-2 …). The description is as above. This is another data set of the same source.
Assay [9] has the same target. Put plainly: ITC / FP.
For assay [10] the target is unchanged. Nature of the assay: ITC; dimeric ligand, two IETAV joined by a PEG4 linker (X = 4).
For assay [11] the target is unchanged. Nature of the assay: FP competition, fluorescent NR2B probe; exact Ki not calculable.
For assay [12] the target is unchanged. Put plainly: ITC.
The target in assay [13] is T2, HIS-PDZ2 protein (PSD-95 PDZ2, residues …). Put plainly: FP competition, fluorescent NR2B probe. The source holds these as a separate data set.
Assay [14] addresses T3, HIS-PDZ1-2 protein (PSD-95 PDZ1-2 …). Nature of the assay: FP competition, fluorescent NR2B probe; exact Ki not calculable. The source holds these as a separate data set.
The target of assay [15] is T4, HIS-PDZ3 protein (PSD-95 PDZ3, residues 309-401, with tag …) (human, UniProt P78352 309-401). Nature of the assay: FP competition: fluorescent CRIPT probe (50 nM) on PDZ3 (5 µM).
For assay [16], the target named is T5, HIS-PDZ1-2 with tryptophan instead of isoleucine (PDZ1-2 I195W) (human, UniProt P78352 61-249).
T5 construct: Used in the stopped-flow fluorimetry of ligand 74; also called PDZ1-21195W (so in the source)
Nature of the assay: stopped-flow fluorimetry, Trp fluorescence; stopped-flow fluorescence titration, not FP.

For assay [17], the target named is T2, HIS-PDZ2 protein (PSD-95 PDZ2, residues …). Put plainly: FP competition, alanine scan.
Assay [18] addresses T4, HIS-PDZ3 protein (PSD-95 PDZ3, residues …). Put plainly: FP competition, fluorescent CRIPT probe.
Assay [19] shares this target. Put plainly: FP saturation binding.
Assay [20] addresses T1, HIS-PDZ1 protein (PSD-95 PDZ1, residues …). Put plainly: FP competition, fluorescent NR2B probe.
Assay [21] addresses T2, HIS-PDZ2 protein (PSD-95 PDZ2, residues …). Nature of the assay: FP competition, fluorescent NR2B probe. This is another data set of the same source.
In assay [22] the target is T1, HIS-PDZ1 protein (PSD-95 PDZ1, residues …). Put plainly: FP competition, fluorescent NR2B probe. The source holds these as a separate data set.
The target of assay [23] is T2, HIS-PDZ2 protein (PSD-95 PDZ2, residues …). Put plainly: FP competition, fluorescent NR2B probe. This is another data set of the same source.
Assay [24] addresses T1, HIS-PDZ1 protein (PSD-95 PDZ1, residues …). Nature of the assay: FP competition assay (Ki), fluorescent NR2B probe displaced from the PDZ domain; bar chart. The source holds these as a separate data set.
Assay [25] deals with T2, HIS-PDZ2 protein (PSD-95 PDZ2, residues …). The assay is described as above. The source holds these as a separate data set.
The target of assay [26] is T3, HIS-PDZ1-2 protein (PSD-95 PDZ1-2 …). Nature of the assay: FP competition, fluorescent NR2B probe.
Assay [27] addresses T1, HIS-PDZ1 protein (PSD-95 PDZ1, residues …). Nature of the assay: FP competition, fluorescent NR2B probe. This is another data set of the same source.
Assay [28] deals with T3, HIS-PDZ1-2 protein (PSD-95 PDZ1-2 …). Put plainly: FP competition, fluorescent NR2B probe. The source holds these as a separate data set.

Read-outs that look alike come from different tables or passages of the source. Numbered stars: 1 amine (or outer) side, 2 acyl side, 3 side chain; on linkers, the order of the positions; unused ones are H or OH. Square brackets hold non-standard residues; d marks the D form. Ends that are not written are not given here. * marks the point of attachment. CO(CH2CH2O)13CH2CH2CO = O=C(CCOCCOCCOCCOCCOCCOCCOCCOCCOCCOCCOCCOCCOCCC(=O)[*:2])[*:1]; 5FAM = O=C1OC2(c3ccc(O)cc3Oc3cc(O)ccc32)c2ccc(C(=O)*)cc21; NMeE = CN[C@@H](CCC(=O)O)C(=O)O

B1: SSIESDV (5) (peptide)
peptide: SSIESDV
notes: N-terminal truncation of the NR2B peptide (1)
Consider B1, for which the binding result in assay [1] and in assay [2] was “binds” each time.
As to IESDV (also called pentapeptide (7)) [IESDV (7)], binding in [3] was put at a Kd of 2600 nM. This molecule also gave a Ki in [4] of 3.1 µM. Also, the “IC50 (read off the curve)” value in [5] is roughly 9 µM; in assay [6] it was roughly 50 µM; in [7] it was roughly 10 µM; in [8], roughly 9 µM.

B2: (IETAV)2PEG4 (83) (peptide)
peptide: IETAV
modifications: also: dimer: two peptides joined at N-terminal amines by amide bonds through a PEG4-diacid linker
notes: Dimeric ligand
For the molecule B2, the “fold increase in affinity compared to monomeric IETAV (82)” value in assay [9] worked out at 176 fold. In addition, the figures for the inhibitory constant (Ki) in assay [4] and in [11] were 1.1 µM and roughly 100 nM, respectively. This molecule also showed a Kd in assay [10] of 11 nM.
In assay [12], {PEG12‑diacid}-IESDV (also: dimer: two peptides N-terminally joined via PEG12-diacid, Dimeric ligand) [(IESDV)2PEG12 (74)] came in with a Kd of 90 nM. In addition, the inhibition constant Ki in [13] is 2.8 µM; in assay [4], 3.1 µM; in assay [14], roughly 100 nM; in assay [11], roughly 100 nM; in [16] it was roughly 100 nM. Moreover, the binding result in [15] is “no binding (tested: log(Conc/M) about -3.3)”.
With IEADV [Compound 12 (IESDV with Ser P^-2 replaced by Ala)], the “fold increase in Ki on Ala substitution of Ser (P^-2) in pentapeptide (7)” value in [17] was 7 fold.
On to IESAV [Compound 13 (IESDV with Asp P^-1 replaced by Ala)], for which the “fold higher Ki than CRIPT” value in [18] is greater than 30 fold.
Turning to 5FAM-KSGLDTKNYKQTSV (also: entry also covers Cy5-CRIPT: CSG linker, Cy5-maleimide on Cys, also called 5-FAM-CRIPT) [5-FAM/Cy5-CRIPT], the Kd in [19] is 3.5 µM.
Take ESNV [Compound 24 (ESDV with Asp P^-1 replaced by Asn)]: the binding result in assay [20] and in assay [21] was “binds” each time.
As to [NMeE]TAV (also called N-Methyl-ETAV (40)) [EMeTAV (40)], the Ki is roughly 79 µM in assay [18], 11 µM in [22] and 8.9 µM in assay [23].
With ETNV (number 31 only on the sheet) [ETNV (31)], the binding result in [24] and in [25] was “binds” each time.
With [NMeE]TNV [Compound 38 (EMeTXV with X = Asn)], the binding result in assay [24] and in assay [25] was “binds” throughout.
For ETQV (number 32 only on the sheet) [ETQV (32)], the binding result in [24] and in assay [25] was “binds” in each case.
The molecule {PEG0‑diacid}-IESDV (also: dimer: two peptides N-terminally joined via PEG0-diacid, Dimeric ligand) [Compound 81 (IESDV dimerized with PEG0-diacid)] had a Kd in assay [12] of 1100 nM. Also, the Ki in assay [4] turned out to be 3.1 µM; in assay [26], 1500 nM. The “IC50 (read off the curve)” value in assay [8] is roughly 5 µM.
Take KQTSV [truncated CRIPT pentapeptide (KQTSV)]: the “fold reduction in Ki (so in the source) compared with CRIPT peptide (2)” value in assay [18] was determined as 14 fold.
As for {PEG4‑diacid}-IESDV (also: dimer: two peptides N-terminally joined via PEG4-diacid, Dimeric ligand) [(IESDV)2PEG4 (78)], the Kd in [3] was determined as 3300 nM; in assay [12], 32 nM. The Ki in assay [4] is 2.7 µM; in assay [11] it was roughly 100 nM.

B3: (GE[N-Cyclohexylethyl]TDV)2PEG12 (75) (peptide)
peptide: {CO(CH2CH2O)13CH2CH2CO}-GETDV-OH
modifications: not fully specified (residue 2); printed as (GE[N-Cyclohexylethyl]TDV)2PEG12 (75); also: dimer: two peptides N-terminally joined via PEG12-diacid
notes: Dimeric ligand; also called (GE[R]TDV)2-PEG12 (75)
On to B3, for which the Ki in assay [27] was 83 µM; in assay [13], 55 µM; in [28], 5.5 µM. Besides, the binding result in [15] is on record as “no binding (tested: log(Conc/M) about -3.6)”.
For the molecule [NMeE]SDV [Compound 18 (ESDV with N-methylated Glu at P^-3)], the “fold higher Ki compared to peptide 1” value in assay [20] worked out at 1.3 fold; in assay [21], 3.7 fold.

B4: SIESDV (6) (peptide)
peptide: SIESDV
notes: as for B1
B4: the binding result in assay [1] and in assay [2] was “binds” in each case.

What is called Kd is the free concentration of one partner at which half of the binding sites on the other are occupied at equilibrium, for simple one-to-one binding. Lower therefore signals a tighter complex. As a reminder, the Ki is the equilibrium dissociation constant of an inhibitor or competing ligand from its target.
